Data from article PMC8929358.

Tests used:
not read = substrate: Cc1c(Cl)c(C)[n+]([O-])c(Cl)c1-c1noc(-c2cc(O)c(O)c([N+](=O)[O-])c2)n1; experiment: not read; type: in vitro ADME, human; settings: other: substrate inhibition fit; pH 7.4; 37.0 °C
[1] = substrate: Cc1c(Cl)c(C)[n+]([O-])c(Cl)c1-c1noc(-c2cc(O)c(O)c([N+](=O)[O-])c2)n1; experiment: cells, lysate or membranes named; type: in vitro ADME, human; settings: pH 7.5; 37.0 °C

| Protein | Km (not read) | Km [1] |
| --- | --- | --- |
| SULT1A1*1 (Homo sapiens) (protein) MELIQDTSRPPLEYVKGVPLIKYFAEALGPLQSFQARPDDLLISTYPKSGTTWVSQILDMIYQGGDLEKCHRAPIFMRVPFLEFKAPGIPSGMETLKDTPAPRLLKTHLPLALLPQTLLDQKVKVVYVARNAKDVAVSYYHFYHMAKVHPEPGTWDSFLEKFMVGEVSYGSWYQHVQEWWELSRTHPVLYLFYEDMKENPKREIQKILEFVGRSLPEETVDFVVQHTSFKEMKKNPMTNYTTVPQEFMDHSISPFMRKGMAGDWKTTFTVAQNERFDADYAEKMAGCSLSFRSEL | 18.7 µM |  |
| SULT1A1*2 (Homo sapiens; R213H) (protein) MELIQDTSRPPLEYVKGVPLIKYFAEALGPLQSFQARPDDLLISTYPKSGTTWVSQILDMIYQGGDLEKCHRAPIFMRVPFLEFKAPGIPSGMETLKDTPAPRLLKTHLPLALLPQTLLDQKVKVVYVARNAKDVAVSYYHFYHMAKVHPEPGTWDSFLEKFMVGEVSYGSWYQHVQEWWELSRTHPVLYLFYEDMKENPKREIQKILEFVGHSLPEETVDFVVQHTSFKEMKKNPMTNYTTVPQEFMDHSISPFMRKGMAGDWKTTFTVAQNERFDADYAEKMAGCSLSFRSEL | 27.3 µM |  |
| UGT 1A3 (Homo sapiens) (protein) GKVLVVPIDGSHWLSMREVLRELHARGHQAVVLTPEVNMHIKEENFFTLTTYAISWTQDEFDRHVLGHTQLYFETEHFLKKFFRSMAMLNNMSLVYHRSCVELLHNEALIRHLNATSFDVVLTDPVNLCAAVLAKYLSIPTVFFLRNIPCDLDFKGTQCPNPSSYIPRLLTTNSDHMTFMQRVKNMLYPLALSYICHAFSAPYASLASELFQREVSVVDILSHASVWLFRGDFVMDYPRPIMPNMVFIGGINCANRKPLSQEFEAYINASGEHGIVVFSLGSMVSEIPEKKAMAIADALGKIPQTVLWRYTGTRPSNLANNTILVKWLPQNDLLGHPMTRAFITHAGSHGVYESICNGVPMVMMPLFGDQMDNAKRMETKGAGVTLNVLEMTSEDLENALKAVINDKSYKENIMRLSSLHKDRPVEPLDLAVFWVEFVMRHKGAPHLRPAAHDLTWYQYHSLDVIGFLLAVVLTVAFITFKCCAYGYRKCLGKKGRVKKAHKSKTH |  | 213 µM |
| UGT 1A9 (Homo sapiens) (protein) GKLLVVPMDGSHWFTMRSVVEKLILRGHEVVVVMPEVSWQLGRSLNCTVKTYSTSYTLEDLDREFKAFAHAQWKAQVRSIYSLLMGSYNDIFDLFFSNCRSLFKDKKLVEYLKESSFDAVFLDPFDNCGLIVAKYFSLPSVVFARGILCHYLEEGAQCPAPLSYVPRILLGFSDAMTFKERVRNHIMHLEEHLLCHRFFKNALEIASEILQTPVTEYDLYSHTSIWLLRTDFVLDYPKPVMPNMIFIGGINCHQGKPLPMEFEAYINASGEHGIVVFSLGSMVSEIPEKKAMAIADALGKIPQTVLWRYTGTRPSNLANNTILVKWLPQNDLLGHPMTRAFITHAGSHGVYESICNGVPMVMMPLFGDQMDNAKRMETKGAGVTLNVLEMTSEDLENALKAVINDKSYKENIMRLSSLHKDRPVEPLDLAVFWVEFVMRHKGAPHLRPAAHDLTWYQYHSLDVIGFLLAVVLTVAFITFKCCAYGYRKCLGKKGRVKKAHKSKTH |  | 13.7 µM |
| UGT 1A1 (Homo sapiens) (protein) HAGKILLIPVDGSHWLSMLGAIQQLQQRGHEIVVLAPDASLYIRDGAFYTLKTYPVPFQREDVKESFVSLGHNVFENDSFLQRVIKTYKKIKKDSAMLLSGCSHLLHNKELMASLAESSFDVMLTDPFLPCSPIVAQYLSLPTVFFLHALPCSLEFEATQCPNPFSYVPRPLSSHSDHMTFLQRVKNMLIAFSQNFLCDVVYSPYATLASEFLQREVTVQDLLSSASVWLFRSDFVKDYPRPIMPNMVFVGGINCLHQNPLSQEFEAYINASGEHGIVVFSLGSMVSEIPEKKAMAIADALGKIPQTVLWRYTGTRPSNLANNTILVKWLPQNDLLGHPMTRAFITHAGSHGVYESICNGVPMVMMPLFGDQMDNAKRMETKGAGVTLNVLEMTSEDLENALKAVINDKSYKENIMRLSSLHKDRPVEPLDLAVFWVEFVMRHKGAPHLRPAAHDLTWYQYHSLDVIGFLLAVVLTVAFITFKCCAYGYRKCLGKKGRVKKAHKSKTH |  | 18 µM |
| UGT 1A10 (Homo sapiens) (protein) GKLLVVPMDGSHWFTMQSVVEKLILRGHEVVVVMPEVSWQLERSLNCTVKTYSTSYTLEDQNREFMVFAHAQWKAQAQSIFSLLMSSSSGFLDLFFSHCRSLFNDRKLVEYLKESSFDAVFLDPFDTCGLIVAKYFSLPSVVFTRGIFCHHLEEGAQCPAPLSYVPNDLLGFSDAMTFKERVWNHIVHLEDHLFCQYLFRNALEIASEILQTPVTAYDLYSHTSIWLLRTDFVLDYPKPVMPNMIFIGGINCHQGKPLPMEFEAYINASGEHGIVVFSLGSMVSEIPEKKAMAIADALGKIPQTVLWRYTGTRPSNLANNTILVKWLPQNDLLGHPMTRAFITHAGSHGVYESICNGVPMVMMPLFGDQMDNAKRMETKGAGVTLNVLEMTSEDLENALKAVINDKSYKENIMRLSSLHKDRPVEPLDLAVFWVEFVMRHKGAPHLRPAAHDLTWYQYHSLDVIGFLLAVVLTVAFITFKCCAYGYRKCLGKKGRVKKAHKSKTH |  | 64.9 ± 23.8 µM |
| UGT 2B7 (Homo sapiens) (protein) GKVLVWAAEYSHWMNIKTILDELIQRGHEVTVLASSASILFDPNNSSALKIEIYPTSLTKTELENFIMQQIKRWSDLPKDTFWLYFSQVQEIMSIFGDITRKFCKDVVSNKKFMKKVQESRFDVIFADAIFPCSELLAELFNIPFVYSLSFSPGYTFEKHSGGFIFPPSYVPVVMSELTDQMTFMERVKNMIYVLYFDFWFEIFDMKKWDQFYSEVLGRPTTLSETMGKADVWLIRNSWNFQFPYPLLPNVDFVGGLHCKPAKPLPKEMEDFVQSSGENGVVVFSLGSMVSNMTEERANVIASALAQIPQKVLWRFDGNKPDTLGLNTRLYKWIPQNDLLGHPKTRAFITHGGANGIYEAIYHGIPMVGIPLFADQPDNIAHMKARGAAVRVDFNTMSSTDLLNALKRVINDPSYKENVMKLSRIQHDQPVKPLDRAVFWIEFVMRHKGAKHLRVAAHDLTWFQYHSLDVIGFLLVCVATVIFIVTKCCLFCFWKFARKAKKGKND |  | 20.6 µM |
| UGT 1A8 (Homo sapiens) (protein) GKLLVVPMDGSHWFTMQSVVEKLILRGHEVVVVMPEVSWQLGKSLNCTVKTYSTSYTLEDLDREFMDFADAQWKAQVRSLFSLFLSSSNGFFNLFFSHCRSLFNDRKLVEYLKESSFDAVFLDPFDACGLIVAKYFSLPSVVFARGIACHYLEEGAQCPAPLSYVPRILLGFSDAMTFKERVRNHIMHLEEHLFCQYFSKNALEIASEILQTPVTAYDLYSHTSIWLLRTDFVLDYPKPVMPNMIFIGGINCHQGKPLPMEFEAYINASGEHGIVVFSLGSMVSEIPEKKAMAIADALGKIPQTVLWRYTGTRPSNLANNTILVKWLPQNDLLGHPMTRAFITHAGSHGVYESICNGVPMVMMPLFGDQMDNAKRMETKGAGVTLNVLEMTSEDLENALKAVINDKSYKENIMRLSSLHKDRPVEPLDLAVFWVEFVMRHKGAPHLRPAAHDLTWYQYHSLDVIGFLLAVVLTVAFITFKCCAYGYRKCLGKKGRVKKAHKSKTH |  | 34.8 ± 9.6 µM |
